“And” between values parts separate entries of the source, which are not always exact repeats. Equal values may be shown once.
Experiments:
[1] = system: full thickness skin wounds; experiment: Acute Wound Model (Example 6); format: in vivo, C57BL/6 mice
Experimental: 6-8 weeks old male C57BL/6 mice were supplied by Changzhou Cvens Experimental Animal Co. Ltd. Prior to any experiments being conducted, mice were housed under standardized conditions (at a constant temperature or 22±2° C., with alternating 12 hour periods of light and darkness), and were fed on a standard mouse diet with water, for about a week. […] The hair on the back was shaved by a baby hair shaver and depilated with cream. […] EMS skin biopsy punch (Electron Microscopy Sciences, P.O. […] Full thickness skin was removed and the depth reached the fascia. The wounds left open without suture. […] The model group was given same amount of normal saline. Recombinant Human Epidermal Growth Factor (rhEGF, Shanghai Haohai Biological Technology Co. Ltd, Shanghai, China) was purchased and prepared according to the manufacturer's instructions. Lyophilized rhEGF powder (100000 IU/vial) was dissolved in 20 mL of normal saline to make a solution with a 5000 IU/mL concentration. […] MedChemExpress, MCE China, Shanghai, China) was obtained in a powder form and was dissolved in ultrapure water to obtain solutions with concentrations as described in Table 22 (L, M and H indicate low, medium and high montelukast doses, respectively) Wounds were wrapped up with transparent dresser after drug administration. Photographs were taken for each wound every other day from Day 0. Photos were scanned into a computer, and wound areas calculated using ImageJ image analysis software (National Institutes of Health, […]). The unhealed wound area was expressed as a percentage of the original wound area: At/A0×100%, where A0 and At refer to the initial area at Day 0 and the wound area at the date of measurement (time t), respectively. […] Half of the tissue was preserved in 10% neutral buffered formalin (Nanchang […] Experimental Equipment Co., Ltd., Nanchang, […] Provence, China), and analyzed by histological embedding in paraffin wax, sectioning and staining. HE and Masson stained paraffin sections were analyzed under an optical microscope. Skin regeneration, fibroblastic proliferation, collagen regeneration scores and inflammation scores were estimated. The rest of the samples were stored at -80° C. for further analysis. […] The supernatant was collected, and the extracted protein was used for ELISA analysis using standard ELISA test kits and an ELISA reader (SH-1000 Hitachi, Japan). […] (Beijing, China).

[2] = system: full thickness skin wounds in diabetic mice; experiment: Diabetic Wound Model (Example 7); format: in vivo, db/db mice (C57BL/KsJ-db/db); conditions: Day 6; wound tissue; rhEGF 100 IU/each, Mon 100 μg/each, once daily topically
Experimental: A similar experiment with essentially the same protocol to that described in Example 6 above was carried out on 8 to 12 week-old male db/db mice (C57BL/KsJ-db/db, with a body weight of 35-45 g/mouse; supplied by Changzhou Cvens Experimental Animal Co. Ltd.).
An EMS skin biopsy punch with a […] diameter was used to make wounds.
Different drugs were administrated topically at 20 μL/wound, once daily from Day 0 to Day 18. The model group was given same amount of normal saline.
Samples were taken on Day 6, Day 12 and Day 18 post-wound inflictions.
Histological specimens were analyzed and skin regeneration, fibroblast proliferation, collagen regeneration scores (Masson score) and inflammation scores were estimated as follows.
The HE and Masson stained slices were observed under an optical microscope and were scored (1, 2 or 3 points) according to the following criteria. […]
Fibroblast proliferation was scored as the following criteria:
Inflammation was scored as the following criteria:
Collagen deposition score criterion for the Masson stained sample were as follows. […] No clear blue staining was given 0 points; blue fiber appearing in a scattered pattern was scored as 1 points; if more blue fiber appeared, this was scored as 2 points, and a diffuse blue colour was given 3 points.

[3] = wound tissue, rhEGF 100 IU/wound

B1: rhEGF: Recombinant Human Epidermal Growth Factor, 5000 IU/mL in normal saline (protein, UniProt P01133 23-1207, looked up)
Pro-epidermal growth factor: PQHWSCPEGTLAGNGNSTCVGPAPFLIFSHGNSIFRIDTEGTNYEQLVVDAGVSVIMDFHYNEKRIYWVDLERQLLQRVFLNGSRQERVCNIEKNVSGMAINWINEEVIWSNQQEGIITVTDMKGNNSHILLSALKYPANVAVDPVERFIFWSSEVAGSLYRADLDGVGVKALLETSEKITAVSLDVLDKRLFWIQYNREGSNSLICSCDYDGGSVHISKHPTQHNLFAMSLFGDRIFYSTWKMKTIWIANKHTGKDMVRINLHSSFVPLGELKVVHPLAQPKAEDDTWEPEQKLCKLRKGNCSSTVCGQDLQSHLCMCAEGYALSRDRKYCEDVNECAFWNHGCTLGCKNTPGSYYCTCPVGFVLLPDGKRCHQLVSCPRNVSECSHDCVLTSEGPLCFCPEGSVLERDGKTCSGCSSPDNGGCSQLCVPLSPVSWECDCFPGYDLQLDEKSCAASGPQPFLLFANSQDIRHMHFDGTDYGTLLSQQMGMVYALDHDPVENKIYFAHTALKWIERANMDGSQRERLIEEGVDVPEGLAVDWIGRRFYWTDRGKSLIGRSDLNGKRSKIITKENISQPRGIAVHPMAKRLFWTDTGINPRIESSSLQGLGRLVIASSDLIWPSGITIDFLTDKLYWCDAKQSVIEMANLDGSKRRRLTQNDVGHPFAVAVFEDYVWFSDWAMPSVMRVNKRTGKDRVRLQGSMLKPSSLVVVHPLAKPGADPCLYQNGGCEHICKKRLGTAWCSCREGFMKASDGKTCLALDGHQLLAGGEVDLKNQVTPLDILSKTRVSEDNITESQHMLVAEIMVSDQDDCAPVGCSMYARCISEGEDATCQCLKGFAGDGKLCSDIDECEMGVPVCPPASSKCINTEGGYVCRCSEGYQGDGIHCLDIDECQLGEHSCGENASCTNTEGGYTCMCAGRLSEPGLICPDSTPPPHLREDDHHYSVRNSDSECPLSHDGYCLHDGVCMYIEALDKYACNCVVGYIGERCQYRDLKWWELRHAGHGQQQKVIVVAVCVVVLVMLLLLSLWGAHYYRTQKLLSKNPKNPYEESSRDVRSRRPADTEDGMSSCPQPWFVVIKEHQDLKNGGQPVAGEDGQAADGSMQPTSWRQEPQLCGMGTEQGCWIPVSSDKGSCPQVMERSFHMPSYGTQTLEGGVEKPHSLLSANPLWQQRALDPPHQMELTQ
modifications: Pro-epidermal growth factor
notes: Recombinant Human Epidermal Growth Factor, 5000 IU/mL in normal saline
remaining wound area versus the initial wound ([1]; Day 2, rhEGF 100 IU/wound once daily topically): 85.73 ± 10.29%
remaining wound area versus the initial wound ([1]; Day 4, rhEGF 100 IU/wound): 68.15 ± 16.47%
remaining wound area versus the initial wound ([1]; Day 6, rhEGF 100 IU/wound): 30.85 ± 1.87%
remaining wound area versus the initial wound ([1]; Day 8, rhEGF 100 IU/wound): 16.93 ± 4.03%
remaining wound area versus the initial wound ([1]; Day 12, rhEGF 100 IU/wound): 5.02 ± 3.03%
Hyp content (μg/mg tissue weight), single animals [1, 3]: 6.54 μg/mg tissue weight and 4.89 μg/mg tissue weight and 5.39 μg/mg tissue weight and 5.45 μg/mg tissue weight
Hyp content, Mean (n = 4) [1, 3]: 5.57 μg/mg tissue weight
VEGF content, Mean [2]: 4.55 pg/g

Source: patent publication US11672792B2, “Topical formulations comprising montelukast and combinations with mussel adhesive proteins” (ENLITISA (SHANGHAI) PHARMACEUTICAL CO., LTD, priority 2017, dated 2023)
